Results from patent publication US20240384250A1, “FIBROBLAST GROWTH FACTOR 23 MODULATING COMPOUNDS” (THE UAB RESEARCH FOUNDATION, priority 2021, published 2024).
“Also recorded” adds a separate entry of the source.

System: FGF23 and FGFR1c
Experiment: sKL detection assay (FGF23 coated, Fc-FGFR1c detection)
Type: binding
Details: for binding in the sKL detection assay: commercial preparations compared with the sKL protein; for binding in the sKL detection assay, total cell lysates: lysates of stably transfected HEK293T cells
Description: Commercially available ELISA plates (Maxisorp) are coated with 5 μg/ml of recombinant FGF23 protein (R&D Systems) and unspecific binding sites are blocked with BSA/Tween20. Wells are incubated with sKL in solution (which can be plasma, serum or cell culture supernatants) for one hour, washed and incubated for one hour with 750 ng/ml of recombinant FGFR1α(IIIc)-Fc (R&D Systems), which is a chimeric protein consisting of the FGFR1 ectodomain and the Fc region of a human IgG. FGFR1 only binds to FGF23 in the presence of sKL, and the formation of this trimeric sandwich complex is then measured by detecting the presence of the Fc domain that is coupled to FGFR1. To do so, wells are washed and incubated with 400 ng/ml of anti-human IgG conjugated to horseradish peroxidase (HRP; Promega). Wells are washed and incubated with HRP substrate. After development for about 30 minutes, reactions are analyzed on a standard plate reader via absorptions at […]. Incubations with recombinant sKL dissolved in PBS at defined concentrations serve as standards that are used as reference values to determine sKL concentrations in the studied human samples. […]
HEK293 cells were plated in 10 cm dishes supplemented with 10% FBS (26140079, Gibco) and I× Pen/Strep (15140122, Gibco). Cells were transfected with appropriate klotho or green fluorescent protein cDNA constructs. After 2 days, clones were selected by using 1 μg/ml of puromycin (A1113803, Gibco). Cells were then split and plated in 10 cm dishes in DMEM supplemented with FBS and puromycin. After 48 hours, cells were lysed in 1 ml of RIPA buffer with the addition of a protease inhibitor (11873580001, Roche) for 30 minutes. The mixture was then centrifuged at 20,000 g for 1 hour to remove all cell debris. Activity assay was run as above in the sKL halflife study. Instead of serum, 20 μl of the indicated cell lysate was used and combined with 80 μl of activity assay buffer.

| Molecule | binding in the sKL detection assay | binding in the sKL detection assay, total cell lysates | binding in the sKL detection assay, total cell lysates (listed as full-length klotho) |
| --- | --- | --- | --- |
| KL1: human klotho domain 1 (KL1) from PeproTech, aa 34-549 (protein) EPGDGAQTWARFSRPPAPEAAGLFQGTFPDGFLWAVGSAAYQTEGGWQQHGKGASIWDTFTHHPLAPPGDSRNASLPLGAPSPLQPATGDVASDSYNNVFRDTEALRELGVTHYRFSISWARVLPNGSAGVPNREGLRYYRRLLERLRELGVQPVVTLYHWDLPQRLQDAYGGWANRALADHFRDYAELCFRHFGGQVKYWITIDNPYVVAWHGYATGRLAPGIRGSPRLGYLVAHNLLLAHAKVWHLYNTSFRPTQGGQVSIALSSHWINPRRMTDHSIKECQKSLDFVLGWFAKPVFIDGDYPESMKNNLSSILPDFTESEKKFIKGTADFFALCFGPTLSFQLLDPHMKFRQLESPNLRQLLSWIDLEFNHPQIFIVENGWFVSGTTKRDDAKYMYYLKKFIMETLKAIKLDGVDVIGYTAWSLMDGFEWHRGYSIRRGLFYVDFLSQDKMLLPKSSALFYQKLIEKNGFPPLPENQPLEGTFPCDFAWGVVDNYIQVDTTLSQFTDLNVYLW | cannot mediate FGF23-FGFR1c binding; also recorded: did not show any bioactivity; also recorded: no binding | – | – |
| Com.sKL: commercial preparation, mouse sKL from R&D Systems (1819KL050), aa 35-982 (protein) AEPGQGAQTWARFARAPAPEAAGLLHDTFPDGFLWAVGSAAYQTEGGWRQHGKGASIWDTFTHHSGAAPSDSPIVVAPSGAPSPPLSSTGDVASDSYNNVYRDTEGLRELGVTHYRFSISWARVLPNGTAGTPNREGLRYYRRLLERLRELGVQPVVTLYHWDLPQRLQDTYGGWANRALADHFRDYAELCFRHFGGQVKYWITIDNPYVVAWHGYATGRLAPGVRGSSRLGYLVAHNLLLAHAKVWHLYNTSFRPTQGGRVSIALSSHWINPRRMTDYNIRECQKSLDFVLGWFAKPIFIDGDYPESMKNNLSSLLPDFTESEKRLIRGTADFFALSFGPTLSFQLLDPNMKFRQLESPNLRQLLSWIDLEYNHPPIFIVENGWFVSGTTKRDDAKYMYYLKKFIMETLKAIRLDGVDVIGYTAWSLMDGFEWHRGYSIRRGLFYVDFLSQDKELLPKSSALFYQKLIEDNGFPPLPENQPLEGTFPCDFAWGVVDNYVQVDTTLSQFTDPNVYLWDVHHSKRLIKVDGVVAKKRKPYCVDFSAIRPQITLLREMRVTHFRFSLDWALILPLGNQTQVNHTVLHFYRCMISELVHANITPVVALWQPAAPHQGLPHALAKHGAWENPHTALAFADYANLCFKELGHWVNLWITMNEPNTRNMTYRAGHHLLRAHALAWHLYDDKFRAAQKGKISIALQADWIEPACPFSQNDKEVAERVLEFDIGWLAEPIFGSGDYPRVMRDWLNQKNNFLLPYFTEDEKKLVRGSFDFLAVSHYTTILVDWEKEDPMKYNDYLEVQEMTDITWLNSPSQVAVVPWGLRKVLNWLRFKYGDLPMYVTANGIDDDPHAEQDSLRIYYIKNYVNEALKAYVLDDINLCGYFAYSLSDRSAPKSGFYRYAANQFEPKPSMKHYRKIIDSNGFLGSGTLGRFCPEEYTVCTECGFFQTRK | significantly reduced binding | – | – |
| KL: full-length klotho in total lysates of stably transfected HEK293T cells (protein, UniProt Q9UEF7 1-1012, looked up, full-length, full-length klotho in total lysates of stably transfected HEK293T cells) MPASAPPRRPRPPPPSLSLLLVLLGLGGRRLRAEPGDGAQTWARFSRPPAPEAAGLFQGTFPDGFLWAVGSAAYQTEGGWQQHGKGASIWDTFTHHPLAPPGDSRNASLPLGAPSPLQPATGDVASDSYNNVFRDTEALRELGVTHYRFSISWARVLPNGSAGVPNREGLRYYRRLLERLRELGVQPVVTLYHWDLPQRLQDAYGGWANRALADHFRDYAELCFRHFGGQVKYWITIDNPYVVAWHGYATGRLAPGIRGSPRLGYLVAHNLLLAHAKVWHLYNTSFRPTQGGQVSIALSSHWINPRRMTDHSIKECQKSLDFVLGWFAKPVFIDGDYPESMKNNLSSILPDFTESEKKFIKGTADFFALCFGPTLSFQLLDPHMKFRQLESPNLRQLLSWIDLEFNHPQIFIVENGWFVSGTTKRDDAKYMYYLKKFIMETLKAIKLDGVDVIGYTAWSLMDGFEWHRGYSIRRGLFYVDFLSQDKMLLPKSSALFYQKLIEKNGFPPLPENQPLEGTFPCDFAWGVVDNYIQVDTTLSQFTDLNVYLWDVHHSKRLIKVDGVVTKKRKSYCVDFAAIQPQIALLQEMHVTHFRFSLDWALILPLGNQSQVNHTILQYYRCMASELVRVNITPVVALWQPMAPNQGLPRLLARQGAWENPYTALAFAEYARLCFQELGHHVKLWITMNEPYTRNMTYSAGHNLLKAHALAWHVYNEKFRHAQNGKISIALQADWIEPACPFSQKDKEVAERVLEFDIGWLAEPIFGSGDYPWVMRDWLNQRNNFLLPYFTEDEKKLIQGTFDFLALSHYTTILVDSEKEDPIKYNDYLEVQEMTDITWLNSPSQVAVVPWGLRKVLNWLKFKYGDLPMYIISNGIDDGLHAEDDQLRVYYMQNYINEALKAHILDGINLCGYFAYSFNDRTAPRFGLYRYAADQFEPKASMKHYRKIIDSNGFPGPETLERFCPEEFTVCTECSFFHTRKSLLAFIAFLFFASIISLSLIFYYSKKGRRSYK | – | much weaker binding | negative |
| sBKL: soluble β-klotho in total lysates of stably transfected HEK293T cells (protein, left off: small tags and cut ends, soluble β-klotho in total lysates of stably transfected HEK293T cells) MKTGCAAGSPGNEWIFFSSDERNTRSRKTMSNRALQRSAVLSAFVLLRAVTGFSGDGKAIWDKKQYVSPVNPSQLFLYDTFPKNFSWGVGTGAFQVEGSWKTDGRGPSIWDRYVYSHLRGVNGTDRSTDSYIFLEKDLLALDFLGVSFYQFSISWPRLFPNGTVAAVNAQGLRYYRALLDSLVLRNIEPIVTLYHWDLPLTLQEEYGGWKNATMIDLFNDYATYCFQTFGDRVKYWITIHNPYLVAWHGFGTGMHAPGEKGNLTAVYTVGHNLIKAHSKVWHNYDKNFRPHQKGWLSITLGSHWIEPNRTDNMEDVINCQHSMSSVLGWFANPIHGDGDYPEFMKTGAMIPEFSEAEKEEVRGTADFFAFSFGPNNFRPSNTVVKMGQNVSLNLRQVLNWIKLEYDDPQILISENGWFTDSYIKTEDTTAIYMMKNFLNQVLQAIKFDEIRVFGYTAWTLLDGFEWQDAYTTRRGLFYVDFNSEQKERKPKSSAHYYKQIIQDNGFPLKESTPDMKGRFPCDFSWGVTESVLKPEFTVSSPQFTDPHLYVWNVTGNRLLYRVEGVRLKTRPSQCTDYVSIKKRVEMLAKMKVTHYQFALDWTSILPTGNLSKVNRQVLRYYRCVVSEGLKLGVFPMVTLYHPTHSHLGLPLPLLSSGGWLNMNTAKAFQDYAELCFRELGDLVKLWITINEPNRLSDMYNRTSNDTYRAAHNLMIAHAQVWHLYDRQYRPVQHGAVSLSLHCDWAEPANPFVDSHWKAAERFLQFEIAWFADPLFKTGDYPSVMKEYIASKNQRGLSSSVLPRFTAKESRLVKGTVDFYALNHFTTRFVIHKQLNTNRSVADRDVQFLQDITRLSSPSRLAVTPWGVRKLLAWIRRNYRDRDIYITANGIDDLALEDDQIRKYYLEKYVQEALKAYLIDKVKIKGYYAFKLTEEKSKPRFGFFTSDFRAKSSVQFYSKLISSSGLPAENRSPACGQPAEDTDCTICSFLVEKKP | – | no measurable binding activity | – |
